Values quoted from earlier work in publication PMC4188015.
One block for each substance: values may come before it.

How the values were obtained:
[1] = biological target: insulin receptor site 1 (Homo sapiens) (UniProt P06213)
[2] = biological target: insulin receptor site 2 (Homo sapiens) (UniProt P06213)
[3] = biological target: insulin receptor isoform A (Homo sapiens) (UniProt P06213)
[4] = biological target: Human insulin (Homo sapiens) (UniProt P01308); assay: ITC

Kd [1]: 0.0064 µM
Kd [2]: 0.4 µM
Substance: insulin (from UniProt P01308)

Kd [3]: 0.004 µM
Substance: IGF-II (from UniProt P01344)

Kd [4]: 8.81 µM
Substance: Human insulin (from UniProt P01308)
